Km data for one substance are collected here from paper PMC3821638, “Molecular Cloning and Characterization of the Calcineurin Subunit A from Plutella xylostella” (International Journal of Molecular Sciences, 2013).

The subject of this series is T1, O=[N+]([O-])c1ccc(OP(=O)(O)O)cc1.
T1 construct: catalytic (phosphatase) domain CNA1–341 (PxCNα), His-tagged, expressed in E. coli
Kind of series: Michaelis-Menten kinetics of purified rPxCNα (Km). Format: biochemical, Plutella xylostella. As to conditions: Mn2+ ([…] MnCl2 in assay buffer).

Chain of Calcineurin subunit A (PxCNA), catalytic domain PxCNα (Plutella xylostella) (chain, as listed by the source): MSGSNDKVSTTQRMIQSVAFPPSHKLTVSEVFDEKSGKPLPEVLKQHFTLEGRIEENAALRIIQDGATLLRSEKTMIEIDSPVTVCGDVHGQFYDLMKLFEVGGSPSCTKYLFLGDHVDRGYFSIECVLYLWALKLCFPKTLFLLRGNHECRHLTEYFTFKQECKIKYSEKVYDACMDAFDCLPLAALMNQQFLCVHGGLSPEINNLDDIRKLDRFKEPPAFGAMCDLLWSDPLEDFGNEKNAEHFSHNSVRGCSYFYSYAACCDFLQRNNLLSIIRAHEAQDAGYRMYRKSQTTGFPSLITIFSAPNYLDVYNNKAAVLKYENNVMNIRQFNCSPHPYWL

A word on the Km: it is the substrate concentration at which the rate is half of its maximum. As to “Calcineurin subunit A (PxCNA), catalytic domain PxCNα (Plutella xylostella)”, the Km turned out to be 4.6 mM.
